The source of these data is patent US20240368283A1.

One assay addresses Hu FcγRIIA_R131 (human) (UniProt P12318). Kind of assay: SPR-type chip kinetics; antibody captured on protein A/G chip, receptor as analyte.
For the next assay, the target named is Hu FcγRIIA_H131 (human) (UniProt P12318). The description is as above.
A further assay has as its target human FcγRIIβ (human) (UniProt P31994). Kind of assay: SPR, antibody captured on ProA/G HC30M chip, recombinant human FcγRIIβ injected (4 nM-5 uM); average kinetic KD.

The term Kd denotes a measure of binding affinity in units of concentration.

Chain of Hu FcγRIIA_H131 (human) (P12318 36-218 limits assumed): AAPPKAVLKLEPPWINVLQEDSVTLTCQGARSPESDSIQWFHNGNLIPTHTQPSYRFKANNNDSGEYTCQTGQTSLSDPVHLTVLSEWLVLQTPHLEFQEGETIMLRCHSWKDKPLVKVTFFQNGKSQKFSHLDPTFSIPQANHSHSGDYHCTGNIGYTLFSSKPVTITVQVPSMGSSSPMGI
Chain of Hu FcγRIIA_R131 (human) (P12318 36-218 H167R limits assumed): as the sequence (P12318 36-218 limits assumed) above, with H132R counted along it
Chain of human FcγRIIβ (human) (P31994 46-217 limits assumed): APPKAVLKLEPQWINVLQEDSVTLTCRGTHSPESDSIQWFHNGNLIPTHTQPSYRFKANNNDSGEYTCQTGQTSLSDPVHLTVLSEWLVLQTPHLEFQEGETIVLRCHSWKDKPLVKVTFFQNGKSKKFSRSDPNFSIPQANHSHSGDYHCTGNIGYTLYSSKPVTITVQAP

On to IgG1 WT (antibody), for which the Kd with Hu FcγRIIA_R131 (human) was 1550 nM; with Hu FcγRIIA_H131 (human) it was 1000 nM.
For 2B6 (antibody), the Kd in the assay with human FcγRIIβ (human) came to 0.407 nM.
